Results on one substance are retold here after paper PMC4764565.

In the assay the target is EphB2-KD-GFP (UniProt P54763). Put plainly: co-IP; anti-GFP antibody on ProteinA/G agarose, overnight, pre-cleared lysates of co-transfected HEK293 cells (10mM Tris-Cl pH 8, 137 mM NaCl, 2mM EDTA, 1% NP40); blot for Myc; in the ligand experiments cells were starved 2 hr in OPTIMEM and incubated 15 min at 37°C with pre-clustered Fc, eB2-Fc or eA3-Fc (1.5 μg/ml), Netrin-1 (250 ng/ml) or eB2-Fc+Netrin-1 before lysis.
EphB2-KD-GFP, sequence (P54763 19-986): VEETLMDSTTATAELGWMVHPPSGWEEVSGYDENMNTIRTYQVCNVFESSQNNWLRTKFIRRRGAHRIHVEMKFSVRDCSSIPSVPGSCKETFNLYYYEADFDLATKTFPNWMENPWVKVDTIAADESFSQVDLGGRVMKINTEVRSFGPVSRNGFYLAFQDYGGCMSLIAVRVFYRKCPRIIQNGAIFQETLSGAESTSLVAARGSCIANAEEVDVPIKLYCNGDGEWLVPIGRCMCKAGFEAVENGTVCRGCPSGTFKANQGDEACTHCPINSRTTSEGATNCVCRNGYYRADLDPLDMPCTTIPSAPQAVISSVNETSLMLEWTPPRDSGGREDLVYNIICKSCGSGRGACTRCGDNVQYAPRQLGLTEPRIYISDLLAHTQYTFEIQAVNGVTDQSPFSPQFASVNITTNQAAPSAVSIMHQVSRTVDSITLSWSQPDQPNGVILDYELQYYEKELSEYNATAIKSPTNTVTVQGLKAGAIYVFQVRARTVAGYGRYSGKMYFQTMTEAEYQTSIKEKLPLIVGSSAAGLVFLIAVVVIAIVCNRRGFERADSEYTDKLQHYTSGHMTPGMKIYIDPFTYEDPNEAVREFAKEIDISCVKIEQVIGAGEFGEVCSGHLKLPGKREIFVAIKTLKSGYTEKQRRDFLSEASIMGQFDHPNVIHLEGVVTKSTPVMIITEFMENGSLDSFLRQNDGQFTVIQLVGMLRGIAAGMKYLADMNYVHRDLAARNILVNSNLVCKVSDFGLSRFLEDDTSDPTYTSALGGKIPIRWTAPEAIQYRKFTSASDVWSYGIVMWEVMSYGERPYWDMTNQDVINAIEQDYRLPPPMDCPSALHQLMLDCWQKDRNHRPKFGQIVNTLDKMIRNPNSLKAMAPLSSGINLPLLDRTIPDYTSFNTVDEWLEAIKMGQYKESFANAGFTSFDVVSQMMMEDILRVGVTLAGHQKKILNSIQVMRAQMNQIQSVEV

Unc5c-Myc, sequence (O08747 41-931): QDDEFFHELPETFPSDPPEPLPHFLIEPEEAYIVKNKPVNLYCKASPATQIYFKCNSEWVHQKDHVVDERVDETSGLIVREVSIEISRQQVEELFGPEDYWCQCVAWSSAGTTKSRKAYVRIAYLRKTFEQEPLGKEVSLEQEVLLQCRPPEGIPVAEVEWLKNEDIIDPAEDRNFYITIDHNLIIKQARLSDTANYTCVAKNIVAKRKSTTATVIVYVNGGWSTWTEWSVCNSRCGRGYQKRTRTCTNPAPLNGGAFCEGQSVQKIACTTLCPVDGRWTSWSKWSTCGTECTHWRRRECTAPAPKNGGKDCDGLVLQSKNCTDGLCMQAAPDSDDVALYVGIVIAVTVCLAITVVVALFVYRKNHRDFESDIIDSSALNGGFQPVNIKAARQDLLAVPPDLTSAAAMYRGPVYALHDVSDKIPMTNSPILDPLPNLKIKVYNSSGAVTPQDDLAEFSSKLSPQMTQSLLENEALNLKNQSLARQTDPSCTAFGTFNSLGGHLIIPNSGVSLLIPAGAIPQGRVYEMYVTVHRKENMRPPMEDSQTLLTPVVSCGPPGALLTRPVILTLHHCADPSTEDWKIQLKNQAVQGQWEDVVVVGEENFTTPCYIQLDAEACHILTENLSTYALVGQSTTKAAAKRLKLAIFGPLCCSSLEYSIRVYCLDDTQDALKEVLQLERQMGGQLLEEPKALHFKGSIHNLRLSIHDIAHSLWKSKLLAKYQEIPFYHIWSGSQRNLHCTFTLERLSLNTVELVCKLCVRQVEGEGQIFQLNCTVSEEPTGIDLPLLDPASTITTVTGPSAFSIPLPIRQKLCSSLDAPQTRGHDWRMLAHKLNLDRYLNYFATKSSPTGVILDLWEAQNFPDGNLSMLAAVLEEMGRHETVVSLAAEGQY

As to “Unc5c-Myc (from UniProt O08747 41-931) (receptor)”, the percent reduction of the interaction against wild-type EphB2-GFP came out at 67%.
